Paper doi:10.1101/836676, “Crosslinking of nucleotide binding domains improves the coupling efficiency of an ABC transporter” (bioRxiv, 2019)

Tests used:
[1] = molecular target: the molecule itself; experiment: cross-linking; disulfide cross-linking of purified cysteine variants in detergent: 1 mM Cu(II)-(1,10-phenanthroline)3, 1 hour, 4 °C, 100 mM NaCl, 20 mM Tris pH 7.5, 0.05% DDM, 0.05% C12E8
[2] = molecular target: the molecule itself; experiment: crystal structure; wildtype NaAtm1 purified in DDM with MgAMPPNP; 50 mM ADA pH 7.1, 8-10% PEG 1000, 8-10% PEG 1500, 20 °C
[3] = molecular target: the molecule itself; experiment: crystal structure; NaS526C, NaT525C and NaE523Q with bound ATP; condition of NaA527C without MgCl2; samples with 1 mM ATP and 5 mM EDTA

| Protein | binding result [1] | further results |
| --- | --- | --- |
| NaA527C, single-site cysteine variant of NaAtm1 (natural protein, Novosphingobium aromaticivorans, C527 in a disulfide with C527 of the second chain after oxidation, NaAtm1 of Novosphingobium aromaticivorans, GenBank ABD27067, with A527C; Made by site-directed mutagenesis of the C-terminally His6-tagged NaAtm1 construct; also called crosslinked NaA527C; source: Escherichia coli BL21-gold (DE3), purified (NiNTA, oxidation with Cu(II)-(1,10-phenanthroline)3, SEC)) MPPETATNPKDARHDGWQTLKRFLPYLWPADNAVLRRRVVGAILMVLLGKATTLALPFAYKKAVDAMTLGGGAQPALTVALAFVLAYALGRFSGVLFDNLRNIVFERVGQDATRHLAENVFARLHKLSLRFHLARRTGEVTKVIERGTKSIDTMLYFLLFNIAPTVIELTAVIVIFWLNFGLGLVTATILAVIAYVWTTRTITEWRTHLREKMNRLDGQALARAVDSLLNYETVKYFGAESREEARYASAARAYADAAVKSENSLGLLNIAQALIVNLLMAGAMAWTVYGWSQGKLTVGDLVFVNTYLTQLFRPLDMLGMVYRTIRQGLIDMAEMFRLIDTHIEVADVPNAPALVVNRPSVTFDNVVFGYDRDREILHGLSFEVAAGSRVAIVGPSGAGKSTIARLLFRFYDPWEGRILIDGQDIAHVTQTSLRAALGIVPQDSVLFNDTIGYNIAYGRDGASRAEVDAAAKGAAIADFIARLPQGYDTEVGERGLKLSGGEKQRVAIARTLVKNPPILLFDEATSCLDTRTEQDILSTMRAVASHRTTISIAHRLSTIADSDTILVLDQGRLAEQGSHLDLLRRDGLYAEMWARQAAESAEVSEAAE | binds | – |
| NaS526C, single-site cysteine variant of NaAtm1 (natural protein, Novosphingobium aromaticivorans, C526 in a disulfide with C526 of the second chain after oxidation, NaAtm1 of Novosphingobium aromaticivorans, GenBank ABD27067, with S526C; Made by site-directed mutagenesis of the C-terminally His6-tagged NaAtm1 construct; source: Escherichia coli BL21-gold (DE3), purified (NiNTA, oxidation with Cu(II)-(1,10-phenanthroline)3, SEC)) MPPETATNPKDARHDGWQTLKRFLPYLWPADNAVLRRRVVGAILMVLLGKATTLALPFAYKKAVDAMTLGGGAQPALTVALAFVLAYALGRFSGVLFDNLRNIVFERVGQDATRHLAENVFARLHKLSLRFHLARRTGEVTKVIERGTKSIDTMLYFLLFNIAPTVIELTAVIVIFWLNFGLGLVTATILAVIAYVWTTRTITEWRTHLREKMNRLDGQALARAVDSLLNYETVKYFGAESREEARYASAARAYADAAVKSENSLGLLNIAQALIVNLLMAGAMAWTVYGWSQGKLTVGDLVFVNTYLTQLFRPLDMLGMVYRTIRQGLIDMAEMFRLIDTHIEVADVPNAPALVVNRPSVTFDNVVFGYDRDREILHGLSFEVAAGSRVAIVGPSGAGKSTIARLLFRFYDPWEGRILIDGQDIAHVTQTSLRAALGIVPQDSVLFNDTIGYNIAYGRDGASRAEVDAAAKGAAIADFIARLPQGYDTEVGERGLKLSGGEKQRVAIARTLVKNPPILLFDEATCALDTRTEQDILSTMRAVASHRTTISIAHRLSTIADSDTILVLDQGRLAEQGSHLDLLRRDGLYAEMWARQAAESAEVSEAAE | binds | – |
| wildtype NaAtm1, bacterial Atm1 homolog from Novosphingobium aromaticivorans (natural protein, NaAtm1, ABC exporter (Atm1 homolog) of Novosphingobium aromaticivorans, GenBank ABD27067; natively cysteine-less; homodimer of 133 kDa; Selenomethionine protein (E. coli B834 (DE3)) was used for phasing; also called native transporter; source: Escherichia coli BL21-gold (DE3), purified (NiNTA, SEC) in DDM) MPPETATNPKDARHDGWQTLKRFLPYLWPADNAVLRRRVVGAILMVLLGKATTLALPFAYKKAVDAMTLGGGAQPALTVALAFVLAYALGRFSGVLFDNLRNIVFERVGQDATRHLAENVFARLHKLSLRFHLARRTGEVTKVIERGTKSIDTMLYFLLFNIAPTVIELTAVIVIFWLNFGLGLVTATILAVIAYVWTTRTITEWRTHLREKMNRLDGQALARAVDSLLNYETVKYFGAESREEARYASAARAYADAAVKSENSLGLLNIAQALIVNLLMAGAMAWTVYGWSQGKLTVGDLVFVNTYLTQLFRPLDMLGMVYRTIRQGLIDMAEMFRLIDTHIEVADVPNAPALVVNRPSVTFDNVVFGYDRDREILHGLSFEVAAGSRVAIVGPSGAGKSTIARLLFRFYDPWEGRILIDGQDIAHVTQTSLRAALGIVPQDSVLFNDTIGYNIAYGRDGASRAEVDAAAKGAAIADFIARLPQGYDTEVGERGLKLSGGEKQRVAIARTLVKNPPILLFDEATSALDTRTEQDILSTMRAVASHRTTISIAHRLSTIADSDTILVLDQGRLAEQGSHLDLLRRDGLYAEMWARQAAESAEVSEAAE | – | binding result [2]: binds |
| NaT525C, single-site cysteine variant of NaAtm1 (natural protein, Novosphingobium aromaticivorans, NaAtm1 of Novosphingobium aromaticivorans, GenBank ABD27067, with T525C; In the cross-linking test C525 forms a disulfide with C525 of the second chain; source: Escherichia coli BL21-gold (DE3), purified (NiNTA, oxidation with Cu(II)-(1,10-phenanthroline)3, SEC)) MPPETATNPKDARHDGWQTLKRFLPYLWPADNAVLRRRVVGAILMVLLGKATTLALPFAYKKAVDAMTLGGGAQPALTVALAFVLAYALGRFSGVLFDNLRNIVFERVGQDATRHLAENVFARLHKLSLRFHLARRTGEVTKVIERGTKSIDTMLYFLLFNIAPTVIELTAVIVIFWLNFGLGLVTATILAVIAYVWTTRTITEWRTHLREKMNRLDGQALARAVDSLLNYETVKYFGAESREEARYASAARAYADAAVKSENSLGLLNIAQALIVNLLMAGAMAWTVYGWSQGKLTVGDLVFVNTYLTQLFRPLDMLGMVYRTIRQGLIDMAEMFRLIDTHIEVADVPNAPALVVNRPSVTFDNVVFGYDRDREILHGLSFEVAAGSRVAIVGPSGAGKSTIARLLFRFYDPWEGRILIDGQDIAHVTQTSLRAALGIVPQDSVLFNDTIGYNIAYGRDGASRAEVDAAAKGAAIADFIARLPQGYDTEVGERGLKLSGGEKQRVAIARTLVKNPPILLFDEACSALDTRTEQDILSTMRAVASHRTTISIAHRLSTIADSDTILVLDQGRLAEQGSHLDLLRRDGLYAEMWARQAAESAEVSEAAE | binds | – |
| NaE523Q, ATP-hydrolysis deficient variant of NaAtm1 with the E to Q mutation in the Walker B-motif (natural protein, Novosphingobium aromaticivorans, NaAtm1 of Novosphingobium aromaticivorans, GenBank ABD27067, with E523Q; Made by site-directed mutagenesis of the C-terminally His6-tagged NaAtm1 construct; source: Escherichia coli BL21-gold (DE3), purified (NiNTA, SEC)) MPPETATNPKDARHDGWQTLKRFLPYLWPADNAVLRRRVVGAILMVLLGKATTLALPFAYKKAVDAMTLGGGAQPALTVALAFVLAYALGRFSGVLFDNLRNIVFERVGQDATRHLAENVFARLHKLSLRFHLARRTGEVTKVIERGTKSIDTMLYFLLFNIAPTVIELTAVIVIFWLNFGLGLVTATILAVIAYVWTTRTITEWRTHLREKMNRLDGQALARAVDSLLNYETVKYFGAESREEARYASAARAYADAAVKSENSLGLLNIAQALIVNLLMAGAMAWTVYGWSQGKLTVGDLVFVNTYLTQLFRPLDMLGMVYRTIRQGLIDMAEMFRLIDTHIEVADVPNAPALVVNRPSVTFDNVVFGYDRDREILHGLSFEVAAGSRVAIVGPSGAGKSTIARLLFRFYDPWEGRILIDGQDIAHVTQTSLRAALGIVPQDSVLFNDTIGYNIAYGRDGASRAEVDAAAKGAAIADFIARLPQGYDTEVGERGLKLSGGEKQRVAIARTLVKNPPILLFDQATSALDTRTEQDILSTMRAVASHRTTISIAHRLSTIADSDTILVLDQGRLAEQGSHLDLLRRDGLYAEMWARQAAESAEVSEAAE | – | binding result [3]: binds |
